# Assay results published in US20240409663A1 (CONCEPT TO MEDICINE BIOTECH, published 2024).
# Tests used:
# human GPC3 on cells [1] = target: T1, human GPC3 on cells (human, UniProt P51654 25-554); experiment: FACS, Huh-7 cells
# T1 construct: whole, on cells; over-expressed on CHOK1 cells or endogenous on HEPG2, Hep3B and Huh-7 hepatocellular carcinoma cells; the cell line is named under assay; also called GPC3-CHOK1 cells; human GPC3 over-expressed CHOK1 cells
# Description: (§1) Cell-based binding: FACS was used to evaluate the binding activity of 52H5D3B8, 52H5D3B8-6 # chimeric mAbs and GC33 antibody on human GPC3 over-expressed CHOK1 cells, Hep3B cells and Huh-7 cells.
# (§2) Briefly, GPC3-CHOK1 cells, Hep3B cells or Huh-7 cells were firstly incubated with Fc blocking reagent at 4° C. for 15 mins. Cells were washed by FACS buffer and divided to each well with 3-fold serially diluted 52H5D3B8, 52H5D3B8-6 # chimeric mAbs or GC33 antibody starting at 30 μg/mL at 4° C. for 60 mins. Cells were washed by FACS buffer and fixed with 2% PFA at RT for 15 mins. […] Samples were washed twice with FACS buffer.
# human GPC3 on cells [2] = target: T1, human GPC3 on cells; experiment: FACS, GPC3-CHOK1 cells
# Description: Cell-based binding: FACS was used to evaluate the binding activity of chimeric mAbs (18C1D9, 52H5D3B8, 163E7D12, 172B4E9, 152E9F7 and 171F9C5) with comparison to a known GPC3 antibody GC33 (Chugai Pharmaceutical) on human GPC3 over-expressed CHOK1 cells.
# Briefly, GPC3-CHOK1 cells were washed by FACS buffer and divided to each well with 3-fold serially diluted chimeric mAbs or GC33 mAb starting at 5 μg/mL at 4° C. for 40 mins. […] Samples were washed twice with FACS buffer.
# human GPC3 on cells [3] = target: T1, human GPC3 on cells; experiment: FACS, GPC3-CHOK1 cells; remark: listed apart in the source
# Outline: (§3)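 Cells Fc-blocked 15 mins at 4° C, then incubated 60 mins at 4° C with antibodies in 4-fold serial dilutions from 10 μg/mL. Washed and fixed in 2% PFA before FACS read-out; antibodies split over two plates.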
# human GPC3 on cells [4] = target: T1, human GPC3 on cells; experiment: FACS, GPC3-CHOK1 cells; remark: listed apart in the source
# Description: as §1, §2
# human GPC3 on cells [5] = target: T1, human GPC3 on cells; experiment: FACS, GPC3-CHOK1 cells; remark: listed apart in the source
# Description: (§4) Cell-based binding: FACS was used to evaluate the binding activity of 52H5D3B8 chimeric mAbs with comparison to a known GPC3 antibody GC33 (Chugai Pharmaceutical) on human GPC3 over-expressed CHOK1 cells, HEPG2 cells, Hep3B cells and Huh-7 cells.
# as §2, with “GPC3-CHOK1 cells, HEPG2” for “GPC3-CHOK1”, “52H5D3B8” for “52H5D3B8, 52H5D3B8-6 #”, “mAb” for “antibody”
# human GPC3 on cells [6] = target: T1, human GPC3 on cells; experiment: FACS, Huh-7 cells; remark: listed apart in the source
# Outline: as §3
# human GPC3 on cells [7] = target: T1, human GPC3 on cells; experiment: FACS, Hep3B cells
# Description: as §4
# as §2, with “GPC3-CHOK1 cells, HEPG2” for “GPC3-CHOK1”, “52H5D3B8” for “52H5D3B8, 52H5D3B8-6 #”, “mAb” for “antibody”
# mouse GPC3 protein = target: T2, mouse GPC3 protein (mouse, UniProt Q8CFZ4 25-558, limits assumed); experiment: ELISA, coated mouse GPC3
# T2 construct: protein coated on plates in the cross species ELISA
# T2 sequence (Q8CFZ4 25-558 limits assumed): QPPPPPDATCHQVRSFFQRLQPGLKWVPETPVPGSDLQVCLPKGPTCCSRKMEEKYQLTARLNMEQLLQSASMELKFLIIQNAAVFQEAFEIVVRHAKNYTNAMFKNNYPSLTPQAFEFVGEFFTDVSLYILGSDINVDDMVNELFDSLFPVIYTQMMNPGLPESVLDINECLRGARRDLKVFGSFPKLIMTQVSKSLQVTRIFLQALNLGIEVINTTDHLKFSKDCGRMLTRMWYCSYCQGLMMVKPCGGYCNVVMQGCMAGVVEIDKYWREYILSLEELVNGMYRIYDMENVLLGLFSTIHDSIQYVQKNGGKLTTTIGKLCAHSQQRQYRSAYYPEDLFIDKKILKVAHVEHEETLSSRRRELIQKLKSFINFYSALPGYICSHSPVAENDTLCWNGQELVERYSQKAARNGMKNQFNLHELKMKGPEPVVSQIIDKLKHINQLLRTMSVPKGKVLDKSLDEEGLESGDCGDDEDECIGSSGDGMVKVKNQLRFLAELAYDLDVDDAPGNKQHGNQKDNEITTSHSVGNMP
# Description: (§5) ELISA testing was carried out to evaluate the binding of chimeric antibodies to human, mouse and cynomolgus GPC3, respectively.
# (§6) Briefly, microtiter plates were coated with human, mouse and cynomolgus GPC3 proteins at 1 μg/ml in PBS, 100 μl/well at 4° C. overnight, then blocked with 150 μl/well of 1% BSA. Three-fold dilutions of chimeric antibodies starting from 9 μg/ml were added to each well and incubated for 1 hour at 37° C. The plates were washed with PBS/Tween and then incubate with mouse-anti-human IgG Fc antibody conjugated with Horse Radish Peroxidase (HRP) for 30 mins at 37° C. After washing, the plates were developed with TMB substrate and analyzed by spectrophotometer at OD 450 nm. The 52H5D3B8 antibody bound to human, cynomolgus GPC3 and mouse GPC3 (FIG. 3 and Table 4).
# human GPC3 on cells [8] = target: T1, human GPC3 on cells; experiment: FACS, Hep3B cells; remark: listed apart in the source
# Description: as §1, §2
# cynomolgus GPC3 protein = target: T3, cynomolgus GPC3 protein (cynomolgus, UniProt A0A2K5VK50 24-553, The natural protein carries heparan sulfate chains and may be cleaved by furin between the alpha (24-357) and beta (358-553) subunits, which stay disulfide-linked. It is written here as one …); experiment: ELISA, coated cynomolgus GPC3
# T3 construct: protein coated on plates in the cross species ELISA
# Description: as §5, §6
# [9] = target: T4, human GPC3-his tag protein (human, UniProt P51654 25-559, limits assumed); experiment: SPR Biacore 8K, mAb captured on CM5, GPC3-his dilution series
# T4 construct: recombinant soluble antigen used as analyte in all Biacore runs; also called recombinant GPC3 protein; rhGPC3-His; not shown: His tag
# Description: The binding of the chimeric 52H5D3B8 mAb to human GPC3-his was tested with Biacore using a capture method. The 52H5D3B8 mAb was captured using CM5 sensor chip. A serial dilution of human GPC3-his tag protein was injected over captured antibody for 2 mins at a flow rate of 30 μl/min. The antigen was allowed to dissociate for 360 s. All the experiments were carried out on a Biacore 8K. Data analysis was carried out using Biacore 8K evaluation software.
binder,measurement,setting,value
"52H5D3B8 chimeric mAb (antibody, V domains shown, also called 52H5D3B8-VH+VL; chimeric 52H5D3B8 mAb) VH: QVQLQQSGAELVRPGASVKLSCKALGYTFTDYEMHWVKQTPVHGLEWIGAIHPGSGGTAYNQKFKGKATLTADKFSSTGYMELSSLTSEDSAVYYCTRFYSYAYWGQGTLVTVSA VL: DVVMTQTPLSLPVSLGDQASISCRSSQSLVHSNGNTYLQWYLQKPGQSPKLLIYKVSNRFSGVPDRFSGSGSGTDFILKISRVEAEDLGVYFCSQSIHVPYTFGGGTKLEIK",EC50,human GPC3 on cells [1],0.0795 µg/mL
same,EC50,human GPC3 on cells [2],0.0909 µg/mL
same,EC50,human GPC3 on cells [3],0.0477 µg/mL
same,EC50,human GPC3 on cells [4],0.07 µg/mL
same,EC50,human GPC3 on cells [5],0.0922 µg/mL
same,EC50,human GPC3 on cells [6],0.0469 µg/mL
same,EC50,human GPC3 on cells [7],0.192 µg/mL
same,EC50,mouse GPC3 protein,4.95 µg/mL
same,EC50,human GPC3 on cells [8],0.217 µg/mL
same,EC50,cynomolgus GPC3 protein,0.0152 µg/mL
same,Kd,[9],0.843 nM
same,koff,[9],0.000466 s⁻¹
same,kon,[9],552000 M⁻¹ s⁻¹
